Reference: US5310882A, “Somatotropins with alterations in the α-helix 3 region” (priority 1990, dated 1994)
Positions count from the first letter of the chain named. In names and notes the source's numbering stands.

B1: L115A + A34: rpST with leucine 115 changed to alanine, A34 background (protein, UniProt P01248 27-216, looked up, variant L115A)
Somatotropin: FPAMPLSSLFANAVLRAQHLHQLAADTYKEFERAYIPEGQRYSIQNAQAAFCFSETIPAPTGKDEAQQRSDVELLRFSLLLIQSWLGPVQFLSRVFTNSLVFGTSDRVYEKLKDAEEGIQALMRELEDGSPRAGQILKQTYDKFDTNLRSDDALLKNYGLLSCFKKDLHKAETYLRVMKCRRFVESSCAF
modifications: A34 background
notes: rpST with leucine 115 changed to alanine, A34 background
B2: L118A + A34: rpST with leucine 118 changed to alanine, A34 background (protein, UniProt P01248 27-216, looked up, variant L118A)
Somatotropin: B1 Somatotropin with L92A, A115L
modifications: A34 background
notes: rpST with leucine 118 changed to alanine, A34 background

Key:
[1] = Solution stability profile of rpST mutant proteins (solubility in vitro at 43° C.); assay type: physicochemical; conditions: pH 7.4
Method: The procedure described to determine stability profiles is as follows. […] This is filtered through a millipore sterile Millex-0.22 μm filter unit and 0.1 ml aliquots placed into tubes. These are placed in a 43° C. oven and removed at the required intervals. The contents are then diluted with phosphate buffered saline. The supernatant is assayed for monomer and dimer content by HPLC. A mass balance is done. Any precipitated material is recorded. Results are compared with the initial concentrations and a stability profile documented.

[2] = test system: somatotropin receptor from purified liver membranes; experiment: Liver radio-receptor assay (RRA), competition with 125I-rpST; conditions: competition with 125I-rpST for binding; percent rpST binding
[3] = test system: hypophysectomized (hypox) rat; experiment: Hypox rat test for growth enhancement; assay type: in vivo; conditions: growth over a period such as 10 days; relative to rpST positive control
Method: The efficacy of the recombinant animal somatotropin derivatives of the present invention for altering the growth rate of animals is determined utilizing the hypophysectomized (hypox) rat assay. […] The response measured is growth over a period of time such as 10 days and is presented in Table IV as percent of the biological activity of the rpST positive control, which is included in every trial.

Row | Molecule | % Soluble [1] [%] | RRA [2] | Hypox rat [3]
1 | B1 | 0 | 163% of the activity observ | 88.6% of the activity of the
2 | B2 | 10 | 49.5% of the activity observ | 64% of the activity of the
